The subject of the data set is VchCAST RNA-guided transposition machinery (E. coli BL21(DE3) host, lacZ target). The experiment in a line: relative integration efficiency (T-RL orientation) vs wild-type transposon end (log2 (normalized fold change)); transposon end mutated: right end (5 bp flank + 75 bp right end); higher = more efficient transposition. The procedure: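 Pooled, barcoded VchCAST (Tn6677) mini-transposon donor libraries; each variable transposon-end sequence sits in a fixed pDonor mini-transposon context (10-bp barcode and cargo not included). Left- or right-end libraries were co-transformed with pEffector (TniQ-Cascade, TnsABC, lacZ crRNA, T7, 0.1 mM IPTG) into E. coli BL21(DE3) and grown 18 h at 37 C. T-LR and T-RL junction amplicons were sequenced; output/input barcode fold change was normalised to the mean of four wild-type barcodes and log2-transformed. Two biological replicates; zero-count/undetected variants carry floor values (-10 / -15), censored here. Barcode uncoupling by PCR recombination adds noise.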

The source of these data is the supplement of paper PMC10201428.

± gives the standard deviation of the averaged measurements.

In the case of “ACAAAACTTGATACAACCATAAAATGATAATTACACCCATAAATTGATAATTATCACACCCATAAATTGATATTGCCTCTGATCATAGTCAGACCAACATTGCTACGACCCGTATTCGCACCGACAC”, the “relative integration efficiency (log2)” value is -6.59 ± 0.45.
As for “ACAGGGTTTGATACAACCATAAAATGATAATTACACCCATAAATTGATAATTATCACACCCATAAATTGATATTGCCTCTGATCATAGTCAGACCAACATTGCTACGACCCGTATTCGCACCGACAC”, the “relative integration efficiency (log2)” value is -7.26 ± 0.17.
In the case of “ACATAACATGATACAACCATAAAATGATAATTACACCCATAAATTGATAATTATCACACCCATAAATTGATATTGCCTCTGATCATAGTCAGACCAACATTGCTACGACCCGTATTCGCACCGACAC” it was -5.71 ± 0.74.
The result for “ACATGGTGTGATACAACCATAAAATGATAATTACACCCATAAATTGATAATTATCACACCCATAAATTGATATTGCCTCTGATCATAGTCAGACCAACATTGCTACGACCCGTATTCGCACCGACAC” reads -6.87 ± 0.18; that for “ACATTACTTGATACAACCATAAAATGATAATTACACCCATAAATTGATAATTATCACACCCATAAATTGATATTGCCTCTGATCATAGTCAGACCAACATTGCTACGACCCGTATTCGCACCGACAC”, -6.45 ± 0.27; that for “ACATTAGTCGATACAACCATAAAATGATAATTACACCCATAAATTCATAATTATCACACCCAATTTAACTATAACGCTCTGATCATAGTCAGACCAACATTGCTACGACCCGTATTCGCACCGACAC”, -7.36 ± 0.82.
In the case of “ACATTAGTGGATACAACCATAAAATGATAATTACACCCATAAATGGATCATTATCACACCCAATTTAACTATAACGCTCTGATCATAGTCAGACCAACATTGCTACGACCCGTATTCGCACCGACAC” it was -6.91 ± 0.47; in that of “ACATTAGTTCATACAACCATAAAATGATAATTACACCCATAAATTCATAATTATCACACCCAATTTAACTATAACGCTCTGATCATAGTCAGACCAACATTGCTACGACCCGTATTCGCACCGACAC”, -6.79 ± 0.48.
Take “ACATTAGTTCATACAACCATAAAATGATAATTACACCCATAAATTGATAATTATCACACCCAATTTAACTATAACGCTCTGATCATAGTCAGACCAACATTGCTACGACCCGTATTCGCACCGACAC”: the “relative integration efficiency (log2)” value was -7.98 ± 0.089.
In the case of “ACATTAGTTCATACAACCATAAAATGATAATTACACCCATAAATTGATCATTATCACACCCAATTTAACTATAACGCTCTGATCATAGTCAGACCAACATTGCTACGACCCGTATTCGCACCGACAC” it was -7.24 ± 0.69.
Regarding “ACATTGGTCGATACAACCATAAAATGATAATTACACCCATAAATGGATAATTATCACACCCAATTTAACTATAACGCTCTGATCATAGTCAGACCAACATTGCTACGACCCGTATTCGCACCGACAC”, the “relative integration efficiency (log2)” value was -7.16 ± 0.89.
In the case of “ACATTGGTCGATACAACCATAAAATGATAATTACACCCATAAATGGATCATTATCACACCCAATTTAACTATAACGCTCTGATCATAGTCAGACCAACATTGCTACGACCCGTATTCGCACCGACAC” it was -7.2 ± 0.28.
For “ACATTGGTGGATACAACCATAAAATGATAATTACACCCATAAATTGATAATTATCACACCCAATTTAACTATAACGCTCTGATCATAGTCAGACCAACATTGCTACGACCCGTATTCGCACCGACAC”, the “relative integration efficiency (log2)” value was -6.88 ± 0.39.
As for “ACATTGGTTCATACAACCATAAAATGATAATTACACCCATAAATGGATCATTATCACACCCAATTTAACTATAACGCTCTGATCATAGTCAGACCAACATTGCTACGACCCGTATTCGCACCGACAC”, the “relative integration efficiency (log2)” value was -7.4 ± 0.26.
In the case of “ACATTGGTTCATACAACCATAAAATGATAATTACACCCATAAATTGATCATTATCACACCCAATTTAACTATAACGCTCTGATCATAGTCAGACCAACATTGCTACGACCCGTATTCGCACCGACAC”, the “relative integration efficiency (log2)” value was -7.14 ± 0.11.
The result for “ACATTGTGGGATACAACCATAAAATGATAATTACACCCATAAATTGATAATTATCACACCCATAAATTGATATTGCCTCTGATCATAGTCAGACCAACATTGCTACGACCCGTATTCGCACCGACAC” reads -5.61 ± 0.22; that for “ACATTTCAACATACAACCATAAAATGATAATTACACCCATAAATTGATAATTATCACACCCATAAATTGATATTGCCTCTGATCATAGTCAGACCAACATTGCTACGACCCGTATTCGCACCGACAC”, -6.21 ± 0.12.
